“And” between values parts separate entries of the source, which are not always exact repeats. Equal entries are not always repeated.
Legend:
[1] = target: monkey TIM-3 on CHOK1 stable cell line (CHOK1-cTIM-3) (monkey); test: FACS, CHOK1-cTIM-3 cells, 0.013 nM antibody
[2] = target: monkey TIM-3 on CHOK1 stable cell line (CHOK1-cTIM-3) (monkey); test: FACS, CHOK1-cTIM-3 cells, 0.064 nM antibody
[3] = target: monkey TIM-3 on CHOK1 stable cell line (CHOK1-cTIM-3) (monkey); test: FACS, CHOK1-cTIM-3 cells, 40 nM antibody
[4] = target: TIM-3 protein on human peripheral blood mononuclear lymphocytes (PBMC) (human) (UniProt Q8TDQ0); test: cell-based or functional assay
Sequence of TIM-3 protein on human peripheral blood mononuclear lymphocytes (PBMC) (human) (Q8TDQ0 22-301 limits assumed): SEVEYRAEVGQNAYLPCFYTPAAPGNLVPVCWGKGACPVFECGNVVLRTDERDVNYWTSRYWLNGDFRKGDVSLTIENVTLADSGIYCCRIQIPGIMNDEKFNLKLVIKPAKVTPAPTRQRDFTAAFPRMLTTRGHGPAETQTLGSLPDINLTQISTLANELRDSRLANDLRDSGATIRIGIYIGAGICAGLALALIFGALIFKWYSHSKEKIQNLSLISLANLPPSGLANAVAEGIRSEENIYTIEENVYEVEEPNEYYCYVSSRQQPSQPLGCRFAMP

[5] = target: monkey TIM-3 on CHOK1 stable cell line (CHOK1-cTIM-3) (monkey); test: FACS, CHOK1-cTIM-3 cells, 0.32 nM antibody
[6] = target: monkey TIM-3 on CHOK1 stable cell line (CHOK1-cTIM-3) (monkey); test: FACS, CHOK1-cTIM-3 cells, 0 nM antibody
[7] = target: monkey TIM-3 on CHOK1 stable cell line (CHOK1-cTIM-3) (monkey); test: FACS, CHOK1-cTIM-3 cells, 1.6 nM antibody
[8] = target: monkey TIM-3 on CHOK1 stable cell line (CHOK1-cTIM-3) (monkey); test: FACS, CHOK1-cTIM-3 cells, 8 nM antibody
[9] = target: monkey TIM-3 on CHOK1 stable cell line (CHOK1-cTIM-3) (monkey); test: FACS, CHOK1-cTIM-3 cells, 200 nM antibody
[10] = target: human TIM-3 protein with hFc tag (hTIM-3-hFc protein) (human) (UniProt Q8TDQ0); test: ELISA, coated hTIM-3-hFc; antibody 0 nM (blank)
Sequence of human TIM-3 protein with hFc tag (hTIM-3-hFc protein) (human) (Q8TDQ0 22-200): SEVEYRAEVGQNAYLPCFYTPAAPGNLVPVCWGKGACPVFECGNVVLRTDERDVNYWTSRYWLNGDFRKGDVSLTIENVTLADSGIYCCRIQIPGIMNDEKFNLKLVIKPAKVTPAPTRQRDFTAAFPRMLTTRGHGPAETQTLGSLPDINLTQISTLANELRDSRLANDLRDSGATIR

[11] = target: human TIM-3 protein with hFc tag (hTIM-3-hFc protein) (human) (UniProt Q8TDQ0); test: ELISA, coated hTIM-3-hFc; antibody 0.6667 nM
[12] = target: human TIM-3 protein with hFc tag (hTIM-3-hFc protein) (human) (UniProt Q8TDQ0); test: ELISA, hTIM-3-hFc coated at 1 ug/ml; antibody 0 nM (blank)
[13] = target: monkey TIM-3 protein with hFc tag (cTIM-3-hFc protein) (monkey; human); test: ELISA, coated cTIM-3-hFc; antibody 0.0007 nM
Sequence of monkey TIM-3 protein with hFc tag (cTIM-3-hFc protein) (monkey; human) (chain, as listed by the source): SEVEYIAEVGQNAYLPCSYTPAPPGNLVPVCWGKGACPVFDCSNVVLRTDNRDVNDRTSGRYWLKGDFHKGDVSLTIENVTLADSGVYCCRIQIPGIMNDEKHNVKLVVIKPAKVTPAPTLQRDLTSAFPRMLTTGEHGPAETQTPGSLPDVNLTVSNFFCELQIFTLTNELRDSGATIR

[14] = target: monkey TIM-3 protein with hFc tag (cTIM-3-hFc protein) (monkey; human); test: ELISA, coated cTIM-3-hFc; antibody 0.0667 nM
[15] = target: human TIM-3, full length, on cells (human) (UniProt Q8TDQ0); test: FACS, CHOK1-hTIM-3 cells; antibody 0.064 nM
Sequence of human TIM-3, full length, on cells (human) (Q8TDQ0 22-301 limits assumed): as the sequence (Q8TDQ0 22-301 limits assumed) above

[16] = target: human TIM-3 protein with hFc tag (hTIM-3-hFc protein) (human) (UniProt Q8TDQ0); test: ELISA, coated hTIM-3-hFc; antibody 0.0001 nM
[17] = target: monkey TIM-3 protein with hFc tag (cTIM-3-hFc protein) (monkey; human); test: ELISA, coated cTIM-3-hFc; antibody 6.6667 nM
[18] = target: human TIM-3, full length, on cells (human) (UniProt Q8TDQ0); test: FACS, CHOK1-hTIM-3 cells; antibody 200 nM
[19] = target: human TIM-3 protein with hFc tag (hTIM-3-hFc protein) (human) (UniProt Q8TDQ0); test: ELISA, coated hTIM-3-hFc; antibody 6.6667 nM
[20] = target: human TIM-3 protein with hFc tag (hTIM-3-hFc protein) (human) (UniProt Q8TDQ0); test: ELISA, hTIM-3-hFc coated at 1 ug/ml; antibody 13.34 nM
[21] = target: monkey TIM-3 protein with hFc tag (cTIM-3-hFc protein) (monkey; human); test: ELISA, coated cTIM-3-hFc; antibody 0 nM (blank)
[22] = target: human TIM-3 protein with hFc tag (hTIM-3-hFc protein) (human) (UniProt Q8TDQ0); test: ELISA, coated hTIM-3-hFc; antibody 0.0007 nM
[23] = target: human TIM-3, full length, on cells (human) (UniProt Q8TDQ0); test: FACS, CHOK1-hTIM-3 cells; antibody 8 nM
[24] = target: murine TIM-3 protein with hFc tag (mTIM-3-hFc protein) (mouse; human) (UniProt Q8VIM0); test: ELISA, coated mTIM-3-hFc; antibody 0 nM (blank)
Sequence of murine TIM-3 protein with hFc tag (mTIM-3-hFc protein) (mouse; human) (Q8VIM0 other isoform, or with tags, fused parts or gaps): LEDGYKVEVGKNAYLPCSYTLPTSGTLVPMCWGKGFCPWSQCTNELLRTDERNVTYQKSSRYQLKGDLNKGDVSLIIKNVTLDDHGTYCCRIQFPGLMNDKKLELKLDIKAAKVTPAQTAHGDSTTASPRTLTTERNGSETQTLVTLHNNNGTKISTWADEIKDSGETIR

[25] = target: human TIM-3, full length, on cells (human) (UniProt Q8TDQ0); test: FACS, CHOK1-hTIM-3 cells; antibody 1.6 nM
[26] = target: human TIM-3 protein with hFc tag (hTIM-3-hFc protein) (human) (UniProt Q8TDQ0); test: ELISA, hTIM-3-hFc coated at 1 ug/ml; antibody 0.0043 nM
[27] = target: human TIM-3 protein with hFc tag (hTIM-3-hFc protein) (human) (UniProt Q8TDQ0); test: ELISA, hTIM-3-hFc coated at 1 ug/ml; antibody 0.53 nM
[28] = target: human TIM-3 protein with hFc tag (hTIM-3-hFc protein) (human) (UniProt Q8TDQ0); test: ELISA, hTIM-3-hFc coated at 1 ug/ml; antibody 2.67 nM
[29] = target: murine TIM-3 protein with hFc tag (mTIM-3-hFc protein) (mouse; human) (UniProt Q8VIM0); test: ELISA, coated mTIM-3-hFc; antibody 6.6667 nM
[30] = target: human TIM-3 protein with hFc tag (hTIM-3-hFc protein) (human) (UniProt Q8TDQ0); test: ELISA, coated hTIM-3-hFc; antibody 0.0067 nM
[31] = target: human TIM-3, full length, on cells (human) (UniProt Q8TDQ0); test: FACS, CHOK1-hTIM-3 cells; antibody 40 nM
[32] = target: human TIM-3, full length, on cells (human) (UniProt Q8TDQ0); test: FACS, CHOK1-hTIM-3 cells; antibody 0.013 nM
[33] = target: human TIM-3 protein with hFc tag (hTIM-3-hFc protein) (human) (UniProt Q8TDQ0); test: ELISA, coated hTIM-3-hFc; antibody 66.667 nM
[34] = target: monkey TIM-3 protein with hFc tag (cTIM-3-hFc protein) (monkey; human); test: ELISA, coated cTIM-3-hFc; antibody 0.0001 nM
[35] = target: human TIM-3 protein with hFc tag (hTIM-3-hFc protein) (human) (UniProt Q8TDQ0); test: ELISA, hTIM-3-hFc coated at 1 ug/ml; antibody 0.11 nM
[36] = target: murine TIM-3 protein with hFc tag (mTIM-3-hFc protein) (mouse; human) (UniProt Q8VIM0); test: ELISA, coated mTIM-3-hFc; antibody 0.0007 nM
[37] = target: human TIM-3 protein with hFc tag (hTIM-3-hFc protein) (human) (UniProt Q8TDQ0); test: ELISA, coated hTIM-3-hFc; antibody 0.0667 nM
[38] = target: monkey TIM-3 protein with hFc tag (cTIM-3-hFc protein) (monkey; human); test: ELISA, coated cTIM-3-hFc; antibody 0.6667 nM
[39] = target: murine TIM-3 protein with hFc tag (mTIM-3-hFc protein) (mouse; human) (UniProt Q8VIM0); test: ELISA, coated mTIM-3-hFc; antibody 0.6667 nM
[40] = target: human TIM-3 protein with hFc tag (hTIM-3-hFc protein) (human) (UniProt Q8TDQ0); test: ELISA, hTIM-3-hFc coated at 1 ug/ml; antibody 66.7 nM
[41] = target: murine TIM-3 protein with hFc tag (mTIM-3-hFc protein) (mouse; human) (UniProt Q8VIM0); test: ELISA, coated mTIM-3-hFc; antibody 0.0667 nM
[42] = target: monkey TIM-3 protein with hFc tag (cTIM-3-hFc protein) (monkey; human); test: ELISA, coated cTIM-3-hFc; antibody 66.667 nM
[43] = target: murine TIM-3 protein with hFc tag (mTIM-3-hFc protein) (mouse; human) (UniProt Q8VIM0); test: ELISA, coated mTIM-3-hFc; antibody 0.0001 nM
[44] = target: human TIM-3, full length, on cells (human) (UniProt Q8TDQ0); test: FACS, CHOK1-hTIM-3 cells; antibody 0 nM (blank)
[45] = target: murine TIM-3 protein with hFc tag (mTIM-3-hFc protein) (mouse; human) (UniProt Q8VIM0); test: ELISA, coated mTIM-3-hFc; antibody 66.667 nM
[46] = target: human TIM-3 protein with hFc tag (hTIM-3-hFc protein) (human) (UniProt Q8TDQ0); test: ELISA, hTIM-3-hFc coated at 1 ug/ml; antibody 0.021 nM
[47] = target: human TIM-3, full length, on cells (human) (UniProt Q8TDQ0); test: FACS, CHOK1-hTIM-3 cells; antibody 0.32 nM
[48] = target: monkey TIM-3 protein with hFc tag (cTIM-3-hFc protein) (monkey; human); test: ELISA, coated cTIM-3-hFc; antibody 0.0067 nM
[49] = target: murine TIM-3 protein with hFc tag (mTIM-3-hFc protein) (mouse; human) (UniProt Q8VIM0); test: ELISA, coated mTIM-3-hFc; antibody 0.0067 nM
[50] = target: human TIM-3 protein on human PBMC (human) (UniProt Q8TDQ0); test: cell-based or functional assay
Sequence of human TIM-3 protein on human PBMC (human) (Q8TDQ0 22-301 limits assumed): as the sequence (Q8TDQ0 22-301 limits assumed) above

Sequence of monkey TIM-3 on CHOK1 stable cell line (CHOK1-cTIM-3) (monkey) (chain, as listed by the source limits assumed): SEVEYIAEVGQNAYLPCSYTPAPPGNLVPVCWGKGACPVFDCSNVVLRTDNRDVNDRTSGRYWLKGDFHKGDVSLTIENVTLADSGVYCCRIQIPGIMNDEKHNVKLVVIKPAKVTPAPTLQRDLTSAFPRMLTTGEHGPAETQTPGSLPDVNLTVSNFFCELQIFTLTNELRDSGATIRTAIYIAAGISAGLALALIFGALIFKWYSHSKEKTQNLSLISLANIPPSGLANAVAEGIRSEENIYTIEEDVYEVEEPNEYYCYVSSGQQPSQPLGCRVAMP

With rat IgG control (antibody) the Mean fluorescence intensity [1] was 3.3, the Mean fluorescence intensity [2] was 3.4 and the Mean fluorescence intensity [3] was 3.7. For the same substance, the IFN production; antibody 0.001 µg/ml (4th head as printed), N = 1 [4] was 738 pg/mL, the IFN production; antibody 0.001 µg/ml (4th head as printed), N = 2 [4] was 786 pg/mL and the IFN production; antibody 0.001 µg/ml (5th head as printed), N = 1 [4] was 727 pg/mL. It also gave an IFN production; antibody 0.001 µg/ml (5th head as printed), N = 2 [4] of 714 pg/mL, an IFN production; antibody 0.1 µg/ml, N = 1 [4] of 718 pg/mL and an IFN production; antibody 0.1 µg/ml, N = 2 [4] of 664 pg/mL. For the same substance, the IFN production; antibody 1 µg/ml, N = 1 [4] was 694 pg/mL, the IFN production; antibody 1 µg/ml, N = 2 [4] was 574 pg/mL and the IFN production; antibody 10 µg/ml, N = 1 [4] was 620 pg/mL. It also gave an IFN production; antibody 10 µg/ml, N = 2 [4] of 582 pg/mL, a Mean fluorescence intensity [5] of 3.5 and a Mean fluorescence intensity [6] of 3.2. For the same substance, the Mean fluorescence intensity [7] was 3.6, the Mean fluorescence intensity [8] was 3.8 and the Mean fluorescence intensity [9] was 4.8.
With rat IgG (negative control antibody) the OD450 [10] was 0.11, the OD450 [11] was 0.13 and the OD450 nm [12] was 0.61 and 0.59. The OD450 [13] was 0.55, the OD450 [14] was 0.54 and the Mean fluorescence intensity [15] was 3. It also gave an OD450 [16] of 0.11, an OD450 [17] of 0.58 and a Mean fluorescence intensity [18] of 3.8. It also gave an OD450 [19] of 0.13, an OD450 nm [20] of 0.63 and an OD450 [21] of 0.55. It also gave an OD450 [22] of 0.12, a Mean fluorescence intensity [23] of 3.1 and an OD450 [24] of 0.6. The Mean fluorescence intensity [25] was 3, the OD450 nm [26] was 0.63 and 0.59 and the OD450 nm [27] was 0.63 and 0.65. The OD450 nm [28] was 0.69 and 0.58, the OD450 [29] was 0.65 and the OD450 [30] was 0.12. It also gave a Mean fluorescence intensity [31] of 3.3, a Mean fluorescence intensity [32] of 3 and an OD450 [33] of 0.22. The OD450 [34] was 0.54, the OD450 nm [35] was 0.6 and 0.59 and the OD450 [36] was 0.67. The OD450 [37] was 0.12, the OD450 [38] was 0.55 and the OD450 [39] was 0.66. The OD450 nm [40] was 0.72 and 0.7, the OD450 [41] was 0.64 and the OD450 [42] was 0.68. The OD450 [43] was 0.63, the Mean fluorescence intensity [44] was 3 and the OD450 [45] was 0.75. The OD450 nm [46] was 0.55 and 0.58, the Mean fluorescence intensity [47] was 3 and the OD450 [48] was 0.57. For the same substance, the OD450 [49] was 0.62.
For “commercially available anti-TIM-3 antibody (R&D system, MAB2365)”, the OD450 nm [12] was 0.6 and 0.59, the OD450 nm [20] was 3.45 and 3.42 and the OD450 nm [26] was 0.92 and 0.86. The OD450 nm [27] was 3.52 and 3.38, the OD450 nm [28] was 3.42 and 3.32 and the OD450 nm [35] was 3.23 and 3.27. For the same substance, the OD450 nm [40] was 3.48 and 3.44 and the OD450 nm [46] was 1.78 and 1.75.
hIgG control (human IgG) (antibody) was tested, and the IFN-γ production, lymphocyte activation assay (donor Y), negative control IgG 0.1 µg/ml, N = 1 [50] was 2100 pg/mL, the IFN-γ production, lymphocyte activation assay (donor Y), negative control IgG 0.1 µg/ml, N = 2 [50] was 2020 pg/mL and the IFN-γ production, lymphocyte activation assay (donor Y), negative control IgG 1 µg/ml, N = 1 [50] was 2190 pg/mL. It also gave an IFN-γ production, lymphocyte activation assay (donor Y), negative control IgG 1 µg/ml, N = 2 [50] of 1770 pg/mL, an IFN-γ production, lymphocyte activation assay (donor Y), negative control IgG 10 µg/ml, N = 1 [50] of 1930 pg/mL and an IFN-γ production, lymphocyte activation assay (donor Y), negative control IgG 10 µg/ml, N = 2 [50] of 1980 pg/mL. For the same substance, the IFN-γ production, lymphocyte activation assay (donor Y), negative control IgG, concentration head printed '0' (fifth), N = 1 [50] was 2000 pg/mL, the IFN-γ production, lymphocyte activation assay (donor Y), negative control IgG, concentration head printed '0' (fifth), N = 2 [50] was 2070 pg/mL and the IFN-γ production, lymphocyte activation assay (donor Y), negative control IgG, concentration head printed '0' (fourth), N = 1 [50] was 1990 pg/mL. It also gave an IFN-γ production, lymphocyte activation assay (donor Y), negative control IgG, concentration head printed '0' (fourth), N = 2 [50] of 2160 pg/mL.
